Measurements: patent US20140357844A1 (RINAT NEUROSCIENCE, published 2014)
Positions count from the first letter of the chain named.

Assays:
[1] = target: T1, Monomeric Trop-2 extracellular domain prepared from papain digestion of Trop-2-Fc fusion protein (human, UniProt P09758 27-274); assay: SPR (Biacore), mouse IgG captured by anti-mouse IgG, monomeric Trop-2 ECD as analyte
T1 construct: also called huTrop-2
T1 sequence: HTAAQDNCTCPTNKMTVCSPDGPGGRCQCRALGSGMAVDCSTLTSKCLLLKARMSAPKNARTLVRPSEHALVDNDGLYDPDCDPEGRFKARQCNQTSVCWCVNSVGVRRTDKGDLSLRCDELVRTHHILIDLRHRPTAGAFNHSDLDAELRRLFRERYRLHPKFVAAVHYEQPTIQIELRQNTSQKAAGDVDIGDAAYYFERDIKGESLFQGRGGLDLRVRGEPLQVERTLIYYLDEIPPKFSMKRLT
Procedure: The affinities of anti-Trop-2 mouse antibodies generated from hybridomas were measured on a surface plasmon resonance Biacore™ 2000 or 3000 biosensor equipped with a research-grade CM5 sensor chip (Biacore™ AB, Uppsala, Sweden—now GE Healthcare). Anti-mouse IgG was first amine coupled to the CM5 sensor surface. Various anti-Trop-2 mouse IgGs were then captured by anti-mouse IgG. Monomeric Trop-2 extracellular domain prepared from papain digestion of Trop-2-Fc fusion protein was then injected as the analyte at 3 fold dilution series.

[2] = target: T2, Trop-2 on Trop-2 expressing tumor cells (human, UniProt P09758 27-323); assay: flow cytometry, A431 cells (Trop-2+++), 1 ug antibody per 300,000 cells
T2 construct: Endogenous Trop-2 of human tumour cell lines; also called Trop-2 positive tumor cells; A431 (Trop-2+++)
T2 sequence: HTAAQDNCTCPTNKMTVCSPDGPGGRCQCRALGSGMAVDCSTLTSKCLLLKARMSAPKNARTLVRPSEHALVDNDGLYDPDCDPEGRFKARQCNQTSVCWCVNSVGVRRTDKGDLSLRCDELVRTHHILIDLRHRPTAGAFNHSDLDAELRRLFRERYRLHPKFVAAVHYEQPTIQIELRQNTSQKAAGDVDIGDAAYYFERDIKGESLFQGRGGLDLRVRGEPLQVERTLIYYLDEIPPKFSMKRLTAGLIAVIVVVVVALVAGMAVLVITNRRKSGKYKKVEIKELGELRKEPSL

[3] = target: T2, Trop-2 on Trop-2 expressing tumor cells; assay: flow cytometry, Colo205 cells (Trop-2+), 1 ug antibody per 300,000 cells
Human Trop-2-mFc protein = target: T3, Human Trop-2-mFc protein (human, UniProt P09758 27-274); assay: SPR (Biacore 2000), human Trop-2-mFc captured by anti-mouse Fc, Fab as analyte
T3 construct: also called huTrop-2; not shown: mouse Fc
T3 sequence: T1 sequence

human Trop-2-hFc = target: T4, human Trop-2-hFc (human, UniProt P09758 27-274); assay: SPR (Biacore T200), human Trop-2-hFc captured by anti-human Fc, Fab as analyte
T4 construct: also called huTrop-2; human Trop-2 human Fc fusion protein; not shown: human Fc
T4 sequence: T1 sequence

[4] = target: T5, cynomolgus monkey Trop-2-hFc (cynomolgus monkey, UniProt A0A2K5UE71 27-274); assay: SPR (Biacore T200), cynomolgus Trop-2-hFc captured by anti-human Fc, Fab as analyte
T5 construct: also called cynoTrop-2; not shown: human Fc
T5 sequence: T1 sequence with M36V, K46E, S67N, I204V

[5] = target: T6, monovalent human Trop2-ECD antigen (human, UniProt P09758 27-274); assay: SPR (ProteOn XPR36), amine-coupled Fab, monovalent human Trop2-ECD as analyte, 25 C;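 further: GLC sensor chip, 3 min association then 15 min buffer dissociation, kinetics fit with a 1:1 Langmuir model, buffer of 10 mM sodium phosphate with 150 mM NaCl and 0.05% Tween-20 at pH 7.4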
T6 construct: also called human Trop2-ECD (Extracellular Domain)
T6 sequence: T1 sequence
Procedure: Analysis of Fab/human Trop2-ECD (Extracellular Domain) interactions was performed using a Bio-Rad Proteon XPR36Surface Plasmon Resonance (SPR) biosensor (Bio-Rad, Hercules, Calif.) equipped with a GLC sensor chip. The assay temperature was 25° C., and the assay buffer was 10 mM Sodium Phosphate, 150 mM NaCl, 0.05% Tween-20, pH 7.4. […] In each analysis cycle, monovalent human Trop2-ECD antigen was flowed at 30 μL/min over the immobilized Fabs for 3 minutes followed by a buffer wash for 15 minutes to monitor dissociation of the Fab/Trop2 complex. The sensor surface was regenerated between analysis cycles, using three 18-second injections of a 2:1 mixture (by volume) of Pierce IgG Elution buffer:4 M NaCl (Pierce, Rockford, Ill.). […] The resulting data were fit to a 1:1 Langmuir binding model using the Proteon evaluation software.

[6] = target: T2, Trop-2 on Trop-2 expressing tumor cells; assay: flow cytometry, Colo205 cells (Trop-2+), 1 ug antibody per 300,000 cells; remark: listed apart in the source
[7] = target: T2, Trop-2 on Trop-2 expressing tumor cells; assay: flow cytometry, A431 cells (Trop-2+++), 0.5 ug antibody per 200,000 cells
Procedure: For A431 cell staining, 200,000 cells were incubated with 0.5 ug antibody in 100 uL binding buffer (PBS (Phosphate Buffered Saline)+0.5% BSA (Bovine Serum Albumin)), followed by incubation with Dylight488-conjugated goat anti-human (Fab′)-2-specific secondary antibody from Jackson immunoresearch Laboratories (West Grove, Pa.).

B1: anti-Trop-2 mouse antibody 6G11 (antibody, mouse IgG2a, V domains shown)
VH: QVQLQQPGAELVRPGASVKLSCKASGYTFTSYWINWVKQRPGHGLEWIGNIYPSDSYSNYNQKFKDKATLTVDKSSSTAYMQVSSPTSEDSAVYYCTYGSSFDYWGQGTTVTVSS
VL: DILLTQSPAILSVSPGERVSFSCRASQTIGTSIHWYQQRTNGSPRLLIKYASESISGIPSRFSGSGSGTDFTLSINSVESEDIADYYCQQSNSWPFTFGSGTKLEIK
notes: also called m6G11
- Kd [1]: 31.8 nM
- koff [1]: 0.0086 s⁻¹
- kon [1]: 270000 M⁻¹ s⁻¹

B2: chimeric mouse anti-Trop-2 6G11 antibody (human IgG1) (antibody, V domains shown)
VH: B1 VH
VL: B1 VL
notes: Expressed in the human IgG1 subtype; also called mouse 6G11
- % positive [2]: 99.9%
- MFI [2]: 16200
- % positive [3]: 100%
- MFI [3]: 1670

B3: h6G11_WT antibody (human IgG1) (antibody, V domains shown)
VH: QVQLVQSGAEVKKPGASVKVSCKASGYTFTSYWINWVRQAPGQGLEWMGNIYPSDSYSNYNQKFKDRVTMTRDTSTSTVYMELSSLRSEDTAVYYCARGSSFDYWGQGTLVTVSS
VL: EIVLTQSPATLSLSPGERATLSCRASQTIGTSIHWYQQKPGQAPRLLIYYASESISGIPARFSGSGSGTDFTLTISSLEPEDFAVYYCQQSNSWPFTFGQGTKLEIK
notes: Human IgG1
- % positive [2]: 99.9%
- MFI [2]: 19600
- % positive [3]: 99%
- MFI [3]: 1720

B4: Human 6G11 WT Fab fragment (Fab, V domains shown)
VH: B3 VH
VL: B3 VL
notes: Fab; also called h6G11_WT; h6G11
- Kd (Human Trop-2-mFc protein): 27 nM
- koff (Human Trop-2-mFc protein): 0.0096 s⁻¹
- kon (Human Trop-2-mFc protein): 360000 M⁻¹ s⁻¹

B5: h6G11_FKG_SF antibody (human IgG1) (antibody, V domains shown)
VH: B3 VH with Y52F, Q62K, S101G
VL: B3 VL with Q89S, N92F
- % positive [2]: 99.9%
- MFI [2]: 20300
- % positive [3]: 100%
- MFI [3]: 2060

B6: Human 6G11_FKG_SF Fab fragment (Fab, V domains shown)
VH: B3 VH with Y52F, Q62K, S101G
VL: B3 VL with Q89S, N92F
notes: Fab
- Kd (Human Trop-2-mFc protein): 0.6 nM
- koff (Human Trop-2-mFc protein): 0.00038 s⁻¹
- kon (Human Trop-2-mFc protein): 640000 M⁻¹ s⁻¹

B7: h7E6_SVG Fab (Fab, V domains shown)
VH: QVQLQESGPGLVKPSETLSLTCTVSGGSISSYGVHWIRQPPGKGLEWIGVIWTSGVTDYNSALMGRVTISVDTSKNQFSLKLSSVTAADTAVYYCARDGDYDRYTMDYWGQGTLVTVSS
VL: DIVMTQSPDSLAVSLGERATINCRASKSVSTSGYSYMHWYQQKPGQPPKLLIYLASNLESGVPDRFSGSGSGTDFTLTISSLQAEDVAVYYCQHSRELPYTFGQGTKLEIK
notes: also called DG (h7E6_SVG)
- Kd (human Trop-2-hFc): 4.46 nM
- koff (human Trop-2-hFc): 0.000435 s⁻¹
- kon (human Trop-2-hFc): 97600 M⁻¹ s⁻¹
- Kd [4]: 7 nM
- koff [4]: 0.00189 s⁻¹
- kon [4]: 265000 M⁻¹ s⁻¹
- Kd [5]: 4.1 nM
- koff [5]: 0.00069 s⁻¹
- kon [5]: 170000 M⁻¹ s⁻¹
- t1/2 [5]: 17 min

B8: h7E6_WT antibody (human IgG1) (antibody, V domains shown)
VH: B7 VH with S54G, V56S, G65S
VL: B7 VL
notes: Human IgG1
- % positive [6]: 99%
- MFI [6]: 1760
- % positive [7]: 94.8%
- MFI [7]: 102000

B9: h7E6-WT recombinant Fab fragment (Fab, V domains shown)
VH: B7 VH with S54G, V56S, G65S
VL: B7 VL
notes: Recombinant Fab
- Kd (human Trop-2-hFc): 21.1 nM
- koff (human Trop-2-hFc): 0.00294 s⁻¹
- kon (human Trop-2-hFc): 139000 M⁻¹ s⁻¹
- Kd [4]: 44 nM
- koff [4]: 0.00635 s⁻¹
- kon [4]: 144000 M⁻¹ s⁻¹

B10: h7E6_L recombinant Fab fragment (Fab, V domains shown)
VH: B7 VH with S54G, V56S, G65S
VL: B7 VL with G33L
notes: Recombinant Fab
- Kd (human Trop-2-hFc): 1.15 nM
- koff (human Trop-2-hFc): 0.00015 s⁻¹
- kon (human Trop-2-hFc): 130000 M⁻¹ s⁻¹
- Kd [4]: 2.66 nM
- koff [4]: 0.000335 s⁻¹
- kon [4]: 126000 M⁻¹ s⁻¹

B11: h7E6_L antibody (human IgG1) (antibody, V domains shown)
VH: B7 VH with S54G, V56S, G65S
VL: B7 VL with G33L
notes: Human IgG1
- % positive [6]: 100%
- MFI [6]: 2470
- % positive [7]: 95.1%
- MFI [7]: 110000

B12: h7E6_SVGL recombinant Fab fragment (Fab, V domains shown)
VH: B7 VH
VL: B7 VL with G33L
notes: Recombinant Fab
- Kd (human Trop-2-hFc): 0.25 nM
- koff (human Trop-2-hFc): 3.27e-05 s⁻¹
- kon (human Trop-2-hFc): 131000 M⁻¹ s⁻¹
- Kd [4]: 0.57 nM
- koff [4]: 7.42e-05 s⁻¹
- kon [4]: 130000 M⁻¹ s⁻¹

B13: h7E6_SVGL antibody (human IgG1) (antibody, V domains shown)
VH: B7 VH
VL: B7 VL with G33L
notes: Human IgG1
- % positive [6]: 100%
- MFI [6]: 2420
- % positive [7]: 93.1%
- MFI [7]: 107000

B14: h7E6_N antibody (human IgG1) (antibody, V domains shown)
VH: B7 VH with S54G, V56S, G65S
VL: B7 VL with G33N
notes: Human IgG1
- % positive [6]: 100%
- MFI [6]: 2700
- % positive [7]: 98.6%
- MFI [7]: 149000

B15: h7E6_SVG antibody (human IgG1) (antibody, V domains shown)
VH: B7 VH
VL: B7 VL
- % positive [6]: 100%
- MFI [6]: 2420
- % positive [7]: 96.7%
- MFI [7]: 121000

B16: h7E6_SVGN antibody (human IgG1) (antibody, V domains shown)
VH: B7 VH
VL: B7 VL with G33N
notes: Human IgG1
- % positive [6]: 100%
- MFI [6]: 2730
- % positive [7]: 98.1%
- MFI [7]: 128000
